B1: Hammerhead Ribozyme (parent)
chain: ACCGGAUGUGCUUUCCGGUCUGAUGAGUCCGUGAGGACGAAACAG

Variants of: B1
Test: self-cleavage, relative activity (ratio to wild type); higher = more cleavage; co-transcriptional

Row | Variant | self-cleavage
1 | G8C G45A | 0.536
2 | G8C G45C | 0.717
3 | G8C G45U | 0.546
4 | G8C U9A | 0.907
5 | G8C U9C | 1.05
6 | G8C U9G | 0.771
7 | G8C U12A | 1.01
8 | G8C U12C | 1.11
9 | G8C U12G | 1.43
10 | G8C U13A | 1.41
11 | G8C U13C | 1.2
12 | G8C U13G | 1.19
13 | G8C U14A | 1.08
14 | G8C U14C | 0.785
15 | G8C U14G | 1.11
16 | G8C U19A | 0.295
17 | G8C U19C | 0.544
18 | G8C U19G | 0.428
19 | G8C U21A | 0.784
20 | G8C U21C | 0.611
21 | G8C U21G | 0.432
22 | G8C U24A | 1.17
23 | G8C U24C | 0.769
24 | G8C U24G | 1.05

Row | Variant | self-cleavage
25 | G8C U28A | 1.22
26 | G8C U28C | 1.16
27 | G8C U28G | 1.05
28 | G8C U32A | 1.28
29 | G8C U32C | 1.46
30 | G8C U32G | 1.23
31 | G8U | 1.02
32 | G8U A23C | 0.504
33 | G8U A23G | 0.363
34 | G8U A23U | 0.324
35 | G8U A26C | 0.596
36 | G8U A26G | 0.351
37 | G8U A26U | 0.935
38 | G8U A34C | 0.925
39 | G8U A34G | 0.927
40 | G8U A34U | 0.792
41 | G8U A37C | 1.09
42 | G8U A37G | 0.906
43 | G8U A37U | 0.774
44 | G8U A40C | 0.566
45 | G8U A40G | 0.376
46 | G8U A40U | 0.301
47 | G8U A41C | 0.324
48 | G8U A41G | 0.328

Row | Variant | self-cleavage
49 | G8U A41U | 0.34
50 | G8U A42C | 0.422
51 | G8U A42G | 0.367
52 | G8U A42U | 0.344
53 | G8U A44C | 0.59
54 | G8U A44G | 1.37
55 | G8U A44U | 0.688
56 | G8U C11A | 1.11
57 | G8U C11G | 1.21
58 | G8U C11U | 1.37
59 | G8U C15A | 0.884
60 | G8U C15G | 0.637
61 | G8U C15U | 1.05
62 | G8U C16A | 0.908
63 | G8U C16G | 0.731
64 | G8U C16U | 1.27
65 | G8U C20A | 0.571
66 | G8U C20G | 0.392
67 | G8U C20U | 0.551
68 | G8U C29A | 0.488
69 | G8U C29G | 0.847
70 | G8U C29U | 1.01
71 | G8U C30A | 0.803
72 | G8U C30G | 0.942

Row | Variant | self-cleavage
73 | G8U C30U | 0.942
74 | G8U C38A | 0.774
75 | G8U C38G | 0.887
76 | G8U C38U | 0.893
77 | G8U C43A | 0.254
78 | G8U C43G | 0.333
79 | G8U C43U | 0.677
80 | G8U G10A | 1.47
81 | G8U G10C | 1.07
82 | G8U G10U | 1.04
83 | G8U G17A | 0.652
84 | G8U G17C | 0.509
85 | G8U G17U | 0.964
86 | G8U G18A | 0.684
87 | G8U G18C | 0.513
88 | G8U G18U | 0.779
89 | G8U G22A | 0.37
90 | G8U G22C | 0.354
91 | G8U G22U | 0.348
92 | G8U G25A | 0.317
93 | G8U G25C | 0.302
94 | G8U G25U | 0.391
95 | G8U G27A | 0.922
96 | G8U G27C | 0.794

Row | Variant | self-cleavage
97 | G8U G27U | 0.554
98 | G8U G31A | 1.23
99 | G8U G31C | 1.18
100 | G8U G31U | 1.08
101 | G8U G33A | 0.938
102 | G8U G33C | 0.57
103 | G8U G33U | 1.07
104 | G8U G35A | 0.811
105 | G8U G35C | 0.842
106 | G8U G35U | 0.616
107 | G8U G36A | 0.658
108 | G8U G36C | 0.885
109 | G8U G36U | 0.495
110 | G8U G39A | 0.395
111 | G8U G39C | 0.417
112 | G8U G39U | 0.344
113 | G8U G45A | 0.744
114 | G8U G45C | 0.768
115 | G8U G45U | 0.826
116 | G8U U9A | 1.11
117 | G8U U9C | 1
118 | G8U U9G | 0.751
119 | G8U U12A | 0.842
120 | G8U U12C | 1.35

Row | Variant | self-cleavage
121 | G8U U12G | 0.993
122 | G8U U13A | 1.1
123 | G8U U13C | 1.34
124 | G8U U13G | 1.05
125 | G8U U14A | 1.15
126 | G8U U14C | 1.06
127 | G8U U14G | 0.94
128 | G8U U19A | 0.398
129 | G8U U19C | 0.649
130 | G8U U19G | 0.369
131 | G8U U21A | 0.782
132 | G8U U21C | 0.819
133 | G8U U21G | 0.571
134 | G8U U24A | 1.24
135 | G8U U24C | 0.829
136 | G8U U24G | 1.11
137 | G8U U28A | 0.966
138 | G8U U28C | 1.23
139 | G8U U28G | 0.789
140 | G8U U32A | 0.996
141 | G8U U32C | 0.877
142 | G8U U32G | 0.859
143 | U9A | 1.02
144 | U9A A23C | 0.46

Row | Variant | self-cleavage
145 | U9A A23G | 0.324
146 | U9A A23U | 0.337
147 | U9A A26C | 0.532
148 | U9A A26G | 0.368
149 | U9A A26U | 0.865
150 | U9A A34C | 1.2
151 | U9A A34G | 0.751
152 | U9A A34U | 0.941
153 | U9A A37C | 1.02
154 | U9A A37G | 1
155 | U9A A37U | 0.593
156 | U9A A40C | 0.49
157 | U9A A40G | 0.349
158 | U9A A40U | 0.367
159 | U9A A41C | 0.455
160 | U9A A41G | 0.357
161 | U9A A41U | 0.37
162 | U9A A42C | 0.32
163 | U9A A42G | 0.218
164 | U9A A42U | 0.332
165 | U9A A44C | 0.523
166 | U9A A44G | 1.46
167 | U9A A44U | 0.557

Reference: the RNAGym collection of RNA variant scans (doi:10.7554/elife.80360)
